Molecular target: the molecule itself
Test: thioflavin T fluorescence

B1: G175S PMEL CAF domain (residues 148-223) (domain or fragment)
chain: SFVYVWKTWGQYWQVLGGPVSGLSIGTSRAMLGTHTMEVTVYHRRGSRSYVPLAHSSSAFTITDQVPFSVSVSQLR
  polymerisation (ThT fluorescence) relative to the wild type: ~4 fold

— article PMC12219675 (Nature Communications, 2025)
